Results published in paper doi:10.1101/2022.01.10.475532 (bioRxiv, 2022).

Biological target: recombinant S trimer protein of the WT SARS-CoV-2 strain (SARS-CoV-2 WT (Wuhan-Hu-1), UniProt P0DTC2, stabilised)
Experiment: ELISA

B1: MAb S3H3 (IgG) (antibody, V domains shown)
VH: QVQLQQPGAELVRPGASVKLSCKASGYSFTRFWMNWVKQRPGQGLEWIGMIHPSDSETRLNQKFKDKATLTVDKSSTTAYMQLSSPTSEDSAVYYCARKDYDYDAWFAYWGQGTLVTVSA
VL: DIVLTQSPASLAVSLGQRATISCRASKSVSASVYSYMHWYQQKPGQPPKLLIYLASSLESGVPARFSGSGSGTDFTLNIHPVEEEDAATYYCHHSRELPPAFGGGTKLEIK
- binding result: binds
